Laboratory results reported in publication PMC3695782, “Hypersusceptibility mechanism of Tenofovir-resistant HIV to EFdA”.

Biological target: HIV-1 reverse transcriptase WT (Human immunodeficiency virus type 1, UniProt P04585;P04585 588-1147;588-1027)
Test: site-specific Fe2+ footprinting; 6 mM MgCl2, 1 uM EFdA-TP, 1 mM Fe2+, varied dTTP; RT 600 nM, T/P 100 nM; mainly pre-translocation; Footprinting: 120 mM sodium cacodylate pH 7, 20 mM NaCl, 6 mM MgCl2, 1 uM EFdA-TP, 7 min pre-incubation with dTTP, then 1 mM ammonium iron sulfate 5 min; temperature not given; EMSA conditions not in the material
Conditions: protein: recombinant; copies: 1;1; label: 5'-Cy3 on template Td43; template 5' overhang 12 nt after EFdA-MP addition; other end blunt

B1: Td43/Pd30-EFdA-MP (dsDNA)
DNA 1: CCATAGATAGCATTGGTGCTCGAACAGTGACAATCAGTGTAGA
DNA 2: TCTACACTGATTGTCACTGTTCGAGCACCAA
modifications: EFdA-MP (4'-ethynyl-2-fluoro-2'-deoxyadenosine monophosphate) as 3'-terminal nucleotide of primer, written A; added in situ by RT to Pd30 (S9)
B1: binds.
